Experiment: soluble on expression in E. coli; label from the status in PepcDB or PDB records
For “KDWRDKDQSDGFGKVYVTEKVAQIKQIPFDASKLHSSPQMAAQHNMVDDGSGKVEIWRVENNGRIQVDQNSYGEFYGGDCYIILYTYPRGQIIYTWQGANATRDELTTSAFLTVQLDRSLGGQAVQIRVSQGKEPVHLLSLFKDKPLIIYKNGTSKKGGQAPAPPTRLFQVRRNLASITRIVEVDVDANSLNSNDVFVLKLPQNSGYIWVGKGASQEEEKGAEYVASVLKCKTLRIQEGEEPEEFWNSLGGKKDYQTSPLLETQAEDHPPRLYGCSNKTGRFVIEEIPGEFTQDDLAEDDVMLLDAWEQIFIWIGKDANEVEKKESLKSAKMYLETDPSGRDKRTPIVIIKQGHEPPTFTGWFLGWDSSKW”, the “soluble on expression in E. coli” value was “soluble”.
In the case of “MMKKSSDCTEILVGKAASMDGSTIVARNEDGYGPINPIKFVVHPAVDQTGASFTSAVTGVEVPLPDHAYRYTGTPQADQSDGQYEEAGINELNVGMSATETTATNARVLGYDPLVDDGINEEAMITLVLPYIKSAKEGAARLGALIEKYGTGESNSIAFNDQNDVWYLETAGGHHWAAMRLPEDTYAIAPNQTLMQTVDLQDTDNFLVASDLVDFVAQHHLNPTPDTFNFREIFGTHGEDDAYYNTPRTWYGQKLFNPEITDQQPTDQDMPFTRKPAKKLAIEDVQFFLSSHYNGTPYDPFGTYASGSAADQRKYRPIAMDRNQCSSILQIRNDVPADHAAIQWIAMGFFAYAPYVPFFTNITDTPADYQSTTAAVDVANVYWLNKTLSVLIEPHFHDYVEAVNAFRDGCQSYARSRVAATDAAVSGNVSAFLTQSNQITAGEISKRTRELFDTIVKHGLLLSKTAWEKGQNL”, the “soluble on expression in E. coli” value is reported as “not soluble”.
For “MNIAAESSAKPVWGPPNFCAAAARMQDVRVLMHPKTGRAFRSPVEPGSGWPGDPATPQTPVAADAAQVSALAGGAGSICELNALISVCRACPRLVSWREEVAVVKRRAFADQPYWGRPVPGWGSKRPRLLILGLAPAAHGANRTGRMFTGDRSGDQLYAALHRAGLVNSPVSVDAADGLRANRIRITAPVRCAPPGNSPTPAERLTCSPWLNAEWRLVSDHIRAIVALGGFAWQVALRLAGASGTPKPRFGHGVVTELGAGVRLLGCYHPSQQNMFTGRLTPTMLDDIFREAKKLAGIE”, the “soluble on expression in E. coli” value was “soluble”.
For “MGSDKIHHHHHHMDQQKKIQILKDLVNIDSTNGHEEQVANYLQKLLAEHGIESEKVQYDLDRASLVSEIGSSNEKVLAFSGHMDVVDAGDVSKWKFPPFEATEHEGKLYGRGATDMKSGLAAMVIAMIELHEEKQKLNGKIRLLATVGEEIGELGAEQLTQKGYADDLDGLIIGEPSGHRIVYAHKGSINYTVKSTGKNAHSSMPEFGVNAIDNLLLFYNEVEKFVKSIDATNEILGDFIHNVTVIDGGNQVNSIPEKAQLQGNIRSIPEMDNETVKQVLVKIINKLNKQENVNLELIFDYDKQPVFSDKNSDLVHIAKSVASDIVKEEIPLLGISGTTDAAEFTKAKKEFPVIIFGPGNETPHQVNENVSIGNYLEMVDVYKRIATEFLS”, the “soluble on expression in E. coli” value was “not soluble”.
In the case of “MLNEGAKNTEKQKVMEIITVAEPMSESELESIRNFLFRIIRREFGFGYIPEYHRDIINLEEYYLKPPRNIFLFASQGGRVIGTLGLRAYDREFEGLNYDPETTASLWRVFVDEDHRRMGVASRLVEIAEKEAASLGYQRIYLHTHKYVGGALEFWLSRGYRVTVDTGNELGTVHMEKTLSCNSNAITRIPEKTSELSHSLPRTQKV”, the “soluble on expression in E. coli” value is reported as “soluble”.
For “MAHHHHHHMQMRWIVDAEERYRRSLTWKPAVGTIYDHKIVMKRGGSSHVQYRFDVDGKEYLGDRFRSGGVHKEEMVSNPALLGAGTQLVVYYNPSDPSESAIKLQTDRAAESAFLVGITISLLVAYRSVRCETILPNMFYSFLAVNRRLGGITGLREARTHSKQKMKYGKGTGAI”, the “soluble on expression in E. coli” value was “not soluble”.
In the case of “MDALIMAGGKGTRLKENVEKPILNICEKPMIDYVIDSLLNSKIEKIYVAVSIHTPKTKEYLEKKYRLDRNYNPKIDIICTSGTNYVDDLNECMEFFKEPFLILSSDIPTIKPKVINSIIQDYLFVNNSCNRIESFCVVTKDDDYVGTPSINMGGYIPLGINILTPKHGEQTEILHVIKDIIVNVNTLSDKKLVETLINKVVELEHHHHHH”, the “soluble on expression in E. coli” value is reported as “soluble”.
In the case of “TKEGMLHYKAGTSYLGKEHWKTCFVVLSNGILYQYPDRTDVIPLLSVNMGGEQCGGCRRANTTDRPHAFQVILSDRPCLELSAESEAEMAEWMQHLCQAVSKGVIPQGVAPS”, the “soluble on expression in E. coli” value is reported as “soluble”.
With “MSENSNQFLDALKQMQGVEVGDIVDVEVLDVEDGQIDVGVENAGVEGVITRREYTSDRNADLRDLVKPGDKFKALVLRRAGGDKENGEFFFSVTRLKEREAFDKLQKDFEEGNAIEGTVTSSVRGGLLVDVGTRGFLPASLISNRYVSDLKPYIGKTMKLKITEIDPNKNRLILSHKDLVEEEREEAFDKVASQLVVGDVVEGKVSRLTNFGSFIDVGGVDGLVHISEISYKHVDKPSDVLKVGQDVKVKVIGIDNDRHRISLSIKQTEPSPFEQATADLNEGDIFEGEVKSLTNFGAFVEVADGIQGLVHVSEISNKHVDKPSDVLKVGQTVKVKVLNIDPNDRRISLSIKAADSNSSSSDNHNSRPRRSRNENTVNKKYMSDNDNGFALGDIIGDQLKDRKLEHHHHHH” the “soluble on expression in E. coli” value was “soluble”.
In the case of “MSPSKLSNDETPPDLDFRFTGIKQRLIKSENVKQVTASWKRLLVEINKEFTEIAKIGPSYVPKCDFIDIKDNKLPQQVSELFKQRGCLMIENVIDVDRIDIWFNELVEFCKTHPETAGYTFPNPTSWYNVFWSKPQTEARFHPNIKAIFKAMSKEFYVEDKENCLIDLDTQLVYGDRIRIREPGKAAALPLHLDSSSIERWEDIMYSEVYKSIFEGDWENWDAFKLDERTYSKENLYKDEDDTGGKSTICSSFRTLQGWLALSNNKSGEGTLRVLPSLKLSMAYIMLRPFFWKDPESGNIDDYEIDMITPKFPGTVPGTGQLFLDKFYPHLHQGIISIPDVKKGSFVFWHCDLPHEVDREHNGNGHSSVLYYGQTPLSITNIQTLLDTRDAFLKNISPADYRSQLNEEEKQKEFQGANIDDLKNDIDSKRSMGLEEFEIPENMSGGQAKIRSIANQALKTGGFNVDKYIHHAAK”, the “soluble on expression in E. coli” value is reported as “soluble”.
For “MGSDKIHHHHHHMSELKLPKDDRSIEVYRLSGTPVAVEKRSAADFNRVAFAAAHVVADPFADNDPWLTPAIDWEATLRFRHRLWDLGLGVAEAMDTAQRGMGLAWPQAQELISRSLKEAASRKDALIACGVGTDHLDSGGYDLNQIIDSYLEQLDFVQGEGGRVILMASRALAAAARSPDDYLKAYARVLSRAEQKVVIHWLGEMFDPALKGYWGSGDHMAAMETCLAMIEENAEKIDGIKISLLSKDKEIVMRRRLPAGVRMYTGDDFNYAELIAGDEQGHSDALLGIFDAIAPAASKALASLKRGADNEFFDILEPTVALSRHIFKAPTRFYKTGVVFLAYLNGLQDHFTMVGGQESTRSTQHFTELFRLADKANVLAEPDLATHRMKAFLAVRGIG”, the “soluble on expression in E. coli” value was “not soluble”.
In the case of “TNLISVNSRSYRLSSAPTIVICVDGCEQEYINQAIQAGQAPFLAELTGFGTVLTGDCVVPSFTNPNNLSIVTGAPPSVHGICGNFFFDQETQEEVLMNDAKYLRAPTILAEMAKAGQLVAVVTAKDKLRNLLGHQLKGICFSAEKADQVNLEEHGVENILARVGMPVPSVYSADLSEFVFAAGLSLLTNERPDFMYLSTTDYVQHKHAPGTPEANAFYAMMDSYFKRYHEQGAIVAITADHGMNAKTDAIGRPNILFLQDLLDAQYGAQRTRVLLPITDPYVVHHGALGSYATVYLRDAVPQRDAIDFLAGIAGVEAVLTRSQACQRFELPEDRIGDLVVLGERLTVLGSAADKHDLSGLTVPLRSHGGVSEQKVPLIFNRKLVGLDSPGRLRNFDIIDLALNHLA”, the “soluble on expression in E. coli” value is reported as “soluble”.
In the case of “MNLKQAFIDNNSIRLGLSADTWQEAVRLAVQPLIDSKAVTSAYYDAIIASTEKYGPYYVLMPGMAMPHAEAGLGVNRNAFALITLTKPVTFSDGKEVSVLLTLAATDPSIHTTVAIPQIVALFELDNAIERLVACQSPKEVLEMVEESKDSPYLEGMDLNA”, the “soluble on expression in E. coli” value is reported as “soluble”.
With “MSLENISETLRTLMNRKNLNHRYEALMTAVYQDPDVRQFLAAHQNELSSDALERSAAKLYEFCEEKRKIARHEPTQAPGYQPTLVMSNHLIDIAYQPTPQMQEQQAAHALQQRVRSISMPKNIQTADLKTYDQDGDRATALMAALDFIDAYTQAPKRFHRGLYLYGSFGVGKTYLLGGMANALAAKGFNTTLIHFPSFAVEMKRSISNNTSADKVDAIKRAPILMIDDIGADASSTWIRDDVLGVILEYRMQEELPTCFSSNFSMQELQDGYLTLSQKGDEEPVKAQRIMQRVRYLASEIEMVGRNRRLNPDAEGHHHHHH” the “soluble on expression in E. coli” value was “soluble”.
In the case of “MSRTYLELSQDDGSAHKFYEVTVQGQVVTVRYGRIGAAGQTQTSTFPTAQKAEAAAAKKIGEKVRKGYEAAVQGQRAPRAVSRRQVASAPSTARAVAPVLWRFRTGSAAFGIHIDEDRCWVGNQAGDVYTLAHGGEVLARYQLPDGVKCLVADDFWIYAGCDDGRVYDLSSKLPFAAYDIAADVDIFWLDIHEGVLNVADRAGRLTVIDHEDEHQWSRGGRGEHAWMVRADDRAVYHGHTRGVTAHSPDGGVELWHTPTQGAVLFGWQEDDAVYAGTARHTVQRLSKATGGIEATYHCDSPVYSCATSPGGRFVFAGDSASSVYCFDRDGTRLWKLGTGGGSALSMQYRDERLFLVTTDGSLVCVDASEAAVTAAQQGSVPVVRDVKLAATLPTYAPATAATAVTTVTVAPAGSVVVECVQENGRTRIHVVTEGYDRSWNVQFPRAIREPGARYVVDALHAASGGFYRVRGDIRRLRLEHHHHHH”, the “soluble on expression in E. coli” value is reported as “not soluble”.
In the case of “MSLENYQFPKDFLWGGAIAANQAEGAFKVDGKGISLADLHKYHKGKTNDEISEEQHKGVSLADIKASMEDKVNYYPKRHGIDFYHTYPEDLALLAEMGFKTFRTSLDWTRIFPTGEETEPNEAGLKYYDQLIDKIIELGMEPIITILHYETPVEIVLNNGGWHNRKVIDLFEKYGKTVLDRYNKKVKYWIVINQINLIQFEPFNSTAIPYDAVDDYLSATYQAVHNQFVASAKIYEYGKALNPDLMIGTMLADCTAYPFSCDPDDIVLAMKRNRMEYFFADVQFQGEYPQYALNYFDENNIHIEITEDDKAVLQKNTMDYLALSYYYSQMVDSKKNDLDPASITPNPHLKANPWGWAVDPKGLYNALSQYWDRYHKPIIIAENGFGMYDKLENGEIHDDYRIDYLSAHLKEMKRAMYDGVEIIAYCAWGPIDIVSCSSAQMEKRYGFIYVDLDNEGNGTGKRIKKDSFSWYKKVIESNGEDLEKGIITITTDPNSSSVDKLAAALEHHHHHH”, the “soluble on expression in E. coli” value is reported as “soluble”.
For “MGSDKIHHHHHHMNRISVVILNWNGCEMLRSFLPSVLRYSEAEGVEVCVADNGSTDQSVEMLRREFPSVRRILLDGNHGFADGYNLALRQVEAEYVVLLNSDVEVTGQWLQPMAAYLDAHPEVAACQPKIRSWRQKEWFEYAGAAGGFIDRYGYPFCRGRVMGVVEADRGQYDTVLPIFWATGAAMFIRLADYREAGGLDGRFFAHMEEIDLCWRLRARGRGIVCIPQSVVYHVGGATLKKENPHKTFLNFRNNLVMLYKNLPDRELAGVMRVRCWLDYIAAATFALKGQPANAKAVVRARREFKLLRDSFRDARAENLRKTSSHFIPERIKSSILVQFYVKGRKFFSQLSDLKG”, the “soluble on expression in E. coli” value was “not soluble”.
In the case of “HMGCAFLTYCARDSALKAQSALHEQKTLPGMNRPIQVKPADSESRGEDRKLFVGMLGKQQTDEDVRKMFEPFGTIDECTVLRGPDGTSKGCAFVKFQTHAEAQAAINTLHSSRTLPGASSSLVVKFADTEKERGLRRMQQVATQLGMFSPIALQFGAYSAYTQALMQQQAALVAAHSAYLSPMATMAAVQMQHMAAINANGLIATPITPSSGTSTPPAIAATPVSAIPAALGVNGYSPVPTQPTGQPAPDALYPNGVHPYPAQSPAAPVDPLQQAYAGMQHYTAAYPAAYSLVAPAFPQPPALVAQQPPPPPQQQQQQQQQQQQQQQREGPDGCNIFIYHLPQEFTDSEILQMFVPFGHVISAKVFVDRATNQSKCFGFVSFDNPASAQAAIQAMNGFQIGMKRLKVQLKRPKDANRPY”, the “soluble on expression in E. coli” value is reported as “soluble”.
